Assay results reported in patent publication US20260108588A1, “A COMPLEX COMPRISING A ALPHA-LACTALBUMIN AND A FATTY ACID OR LIPID FOR USE IN THE TREATMENT OR PREVENTION OF CANCER” (LINNANE PHARMA AB, priority 2022, published 2026).

Columns and labels:
DLD1 cells = test: Cell death assays (Prestoblue and ATPlite); type: cell-based, human; conditions: 7, 21 and 35 μM each, FIG. 12g-i
Procedure: Two assays were used as an indirect measure of cell death. Luminescence-based ATPlite™ kit (Perkin Elmer) as well as the Prestoblue assay (ThermoFisher Scientific). Cells (5×10^4 cells/well) were seeded in serum-free RPMI-1640 on 96-well plates and treated with BAMLET and alpha1-oleate at different concentration (7, 21, and 35 μM) and incubated for one hour. Afterward, FCS was added at concentration of 5% and the cells were continuously incubated for two hours at 37° C., at the end of which the two kits were used according to manufactures' instructions. Luminescence and fluorescence were measured using a microplate reader (Infinite F200, Tecan). The experiments were performed in triplicate and repeated twice.

bladder cancer [1] = conditions: patients; cited from earlier work
bladder cancer [2] = conditions: local instillations; cited from earlier work
tumor cells = conditions: cited from earlier work
skin papillomas = conditions: topical application; cited from earlier work

| Molecule | tumoricidal effect, BAMLET compared with alpha1-oleate (DLD1 cells) | therapeutic efficacy in bladder cancer (bladder cancer [1]) | tumor size in bladder cancer (bladder cancer [2]) | tumor cell killing in vitro (tumor cells) | effect on skin papillomas (skin papillomas) |
| --- | --- | --- | --- | --- | --- |
| alpha1-oleate: HAMLET family member formed by the N-terminal alpha-helical peptide (aa 1-39) of alpha-lactalbumin and oleate [reference compound] | similar | has shown therapeutic efficacy |  |  |  |
| HAMLET: tumoricidal unfolded protein-lipid complex of partially unfolded human α-lactalbumin and oleic acid (protein, UniProt P00709 20-142, looked up, complexed with oleic acid) Alpha-lactalbumin: KQFTKCELSQLLKDIDGYGGIALPELICTMFHTSGYDTQAIVENNESTEYGLFQISNKLWCKSSQVPQSRNICDISCDKFLDDDITDDIMCAKKILDIKGIDYWLAHKALCTEKLEQWLCEKL |  |  | caused a reduction in tumor size | kills many types of tumor cells | removed or reduced skin papillomas |
